From article PMC4604457 come the findings set out here.

The target in experiment [1] is N-MBP-ORF3-A647 (not stated | Hepatitis E virus genotype 1) (UniProt O90299). The experiment can be described thus: MST.
Experiment [2] shares this target. Nature of the experiment: MST; pH 7.
Experiment [3] has the same target. Nature of the experiment: MST; as a7 but at pH 6.0 (pH series), 30 °C.
Experiment [4] shares this target. Nature of the experiment: MST; as a7 but at pH 8.0 (pH series), 30 °C.
For experiment [5] the target is unchanged. The experiment can be described thus: MST; as a7 but at 35 °C (temperature series), pH 7.
Experiment [6] has the same target. Nature of the experiment: MST; as a7 but at 37 °C (temperature series), pH 7.
For experiment [7] the target is unchanged. The experiment can be described thus: MST; as a7 but at 41 °C (temperature series), pH 7.

For N-MBP-Hel (domain or fragment), the concentration giving a half-maximal response (EC50) in experiment [1] stood at 87.9 nM.
Still for that read-out and setting: the figure for N-MBP-Met (domain or fragment) is 33.7 nM.
With N-MBP-Plp (domain or fragment), the EC50 in experiment [1] turned out to be 0.3 nM; in experiment [2], 1.5 nM; in experiment [3], 19 nM; in experiment [4], 6 nM; in experiment [5], 2.8 nM; in experiment [6], 16 nM. Also, the concentration for a half-maximal effect (EC50) in experiment [7] is 19 nM.
In experiment [1], N-MBP-Pvx (domain or fragment) registered a concentration giving a half-maximal response (EC50) of 1.6 nM.
The same measure, in the same setting: as for N-MBP-X (domain or fragment), the figure is 5.6 nM.
